We go through 125 sequences from the supplement of paper PMC9112550, “Optimization of the antimicrobial peptide Bac7 by deep mutational scanning” (BMC Biology, 2022).

For this data set, the system named is Escherichia coli TOP10. The experiment in a line: shrunken log2 fold change of peptide-encoding DNA abundance (4.5 h post-induction vs induction); higher = less antimicrobial activity (less host growth inhibition). The note with it: time post-induction: 4.5 h; library: site-saturation at positions 5, 18, 19, 20.
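Also: peptides expressed intracellularly from a pBAD plasmid library in pooled LB shake-flask culture, induced with 0.3% L-arabinose, DNA abundance read by NGS, three biological replicates, DESeq2 with apeglm shrinkage.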

As for RRIRMRPPRLPRPRPRPWGEPRP, the “shrunken log2 fold change” value came out at 0.232. Regarding RRIRKRPPRLPRPRPRPVVIPRP, the “shrunken log2 fold change” value is -0.112. Regarding RRIRGRPPRLPRPRPRPIAAPRP, the “shrunken log2 fold change” value came out at 2.9.

RRIRMRPPRLPRPRPRPCLPPRP: the “shrunken log2 fold change” value is 0.154. Regarding RRIRERPPRLPRPRPRPGLTPRP, the “shrunken log2 fold change” value was -0.174.

As to RRIRWRPPRLPRPRPRPLHVPRP, the “shrunken log2 fold change” value was found to be 0.407. With RRIRTRPPRLPRPRPRPFTNPRP, the “shrunken log2 fold change” value is -0.0559. RRIRNRPPRLPRPRPRPTSKPRP: the “shrunken log2 fold change” value is -0.0758. The figure for RRIRMRPPRLPRPRPRPAKPPRP is 0.453. For RRIRNRPPRLPRPRPRPKQMPRP, the “shrunken log2 fold change” value is 0.267. On to RRIRARPPRLPRPRPRPFPTPRP, for which the “shrunken log2 fold change” value amounted to 0.311.

Consider RRIRARPPRLPRPRPRPWLWPRP, for which the “shrunken log2 fold change” value was determined as 0.435. The figure for RRIRVRPPRLPRPRPRPFFMPRP is -0.339; for RRIRSRPPRLPRPRPRPKTDPRP it is 0.124. With RRIRYRPPRLPRPRPRPDNCPRP, the “shrunken log2 fold change” value is -0.0299. Turning to RRIRDRPPRLPRPRPRPSEEPRP, the “shrunken log2 fold change” value was 0.277. As to RRIRARPPRLPRPRPRPMFHPRP, the “shrunken log2 fold change” value was -0.275. For the sequence RRIRIRPPRLPRPRPRPDLNPRP, the “shrunken log2 fold change” value was -0.211. Consider RRIRIRPPRLPRPRPRPHFQPRP, for which the “shrunken log2 fold change” value was -1.78. In the case of RRIRQRPPRLPRPRPRPEVAPRP it was 0.00859; in that of RRIRHRPPRLPRPRPRPRLSPRP, -0.0962; in that of RRIRERPPRLPRPRPRPYNDPRP, 0.0352.

On to RRIRPRPPRLPRPRPRPTGNPRP, for which the “shrunken log2 fold change” value is 0.141.

Turning to RRIRARPPRLPRPRPRPWFHPRP, the “shrunken log2 fold change” value is -0.301. The figure for RRIRGRPPRLPRPRPRPMAPPRP is 1.2; for RRIRGRPPRLPRPRPRPIDCPRP it is -0.00142. RRIRDRPPRLPRPRPRPIKVPRP: the “shrunken log2 fold change” value was 0.00881. Turning to RRIRVRPPRLPRPRPRPMRYPRP, the “shrunken log2 fold change” value is 0.453. In the case of RRIRWRPPRLPRPRPRPLERPRP it was -0.148; in that of RRIRHRPPRLPRPRPRPEPTPRP, 0.179.

RRIRRRPPRLPRPRPRPNDRPRP: the “shrunken log2 fold change” value amounted to 0.205. In the case of RRIRFRPPRLPRPRPRPYKTPRP, the “shrunken log2 fold change” value was -0.166. With RRIRNRPPRLPRPRPRPISIPRP, the “shrunken log2 fold change” value is 0.0125. On to RRIRARPPRLPRPRPRPTEIPRP, for which the “shrunken log2 fold change” value was -0.0477. As to RRIRMRPPRLPRPRPRPFIDPRP, the “shrunken log2 fold change” value was -0.438. RRIRVRPPRLPRPRPRPMTTPRP: the “shrunken log2 fold change” value worked out at 0.0377. As for RRIRYRPPRLPRPRPRPSESPRP, the “shrunken log2 fold change” value is -0.0299. With RRIRYRPPRLPRPRPRPALEPRP, the “shrunken log2 fold change” value was -0.486. For the sequence RRIRCRPPRLPRPRPRPFQIPRP, the “shrunken log2 fold change” value is 0.00581. For RRIRYRPPRLPRPRPRPFQPPRP, the “shrunken log2 fold change” value was -0.375. As for RRIRCRPPRLPRPRPRPHDSPRP, the “shrunken log2 fold change” value was -0.298. In the case of RRIRYRPPRLPRPRPRPNLNPRP it was -0.393; in that of RRIRCRPPRLPRPRPRPLRSPRP, 0.482. In the case of RRIRTRPPRLPRPRPRPMRHPRP it was 0.00372; in that of RRIRARPPRLPRPRPRPIYFPRP, -0.0784; in that of RRIRMRPPRLPRPRPRPACQPRP, 0.141.

RRIRTRPPRLPRPRPRPGWFPRP: the “shrunken log2 fold change” value worked out at 0.461. In the case of RRIRSRPPRLPRPRPRPQETPRP it was 0.0728; in that of RRIRHRPPRLPRPRPRPPQTPRP, -0.00347; in that of RRIRWRPPRLPRPRPRPAMTPRP, 0.299. RRIRIRPPRLPRPRPRPQNYPRP: the “shrunken log2 fold change” value is -0.428. With RRIRERPPRLPRPRPRPCHVPRP, the “shrunken log2 fold change” value was -0.0775.

Take RRIRWRPPRLPRPRPRPCVQPRP: the “shrunken log2 fold change” value worked out at 2.8.

For the sequence RRIRFRPPRLPRPRPRPRTEPRP, the “shrunken log2 fold change” value turned out to be 0.202. RRIRLRPPRLPRPRPRPPEGPRP: the “shrunken log2 fold change” value was determined as 0.662. On to RRIRSRPPRLPRPRPRPLGDPRP, for which the “shrunken log2 fold change” value came to 0.0783.

For the sequence RRIRSRPPRLPRPRPRPAHVPRP, the “shrunken log2 fold change” value is -0.0302. With RRIRIRPPRLPRPRPRPQSVPRP, the “shrunken log2 fold change” value was -0.295.

As to RRIRSRPPRLPRPRPRPYFGPRP, the “shrunken log2 fold change” value was -0.642. The figure for RRIRCRPPRLPRPRPRPFGAPRP is 0.102; for RRIRKRPPRLPRPRPRPEPIPRP it is -0.0204. Turning to RRIRDRPPRLPRPRPRPAYIPRP, the “shrunken log2 fold change” value was -0.0656. The figure for RRIRLRPPRLPRPRPRPMRTPRP is 0.3; for RRIRSRPPRLPRPRPRPSPYPRP it is -0.672. RRIRDRPPRLPRPRPRPFGDPRP: the “shrunken log2 fold change” value was -0.0062.

For RRIRYRPPRLPRPRPRPVARPRP, the “shrunken log2 fold change” value was -0.206.

For the sequence RRIRMRPPRLPRPRPRPYERPRP, the “shrunken log2 fold change” value is -0.0671.

Turning to RRIRQRPPRLPRPRPRPHQMPRP, the “shrunken log2 fold change” value was found to be 0.0681.

As for RRIRDRPPRLPRPRPRPNHKPRP, the “shrunken log2 fold change” value is -0.661.

Turning to RRIRFRPPRLPRPRPRPIQNPRP, the “shrunken log2 fold change” value was -0.544. RRIRKRPPRLPRPRPRPRCSPRP: the “shrunken log2 fold change” value amounted to 0.305. Take RRIRLRPPRLPRPRPRPEQVPRP: the “shrunken log2 fold change” value was -0.117.

For RRIRFRPPRLPRPRPRPLWWPRP, the “shrunken log2 fold change” value turned out to be 0.172.

Turning to RRIRLRPPRLPRPRPRPIADPRP, the “shrunken log2 fold change” value is -0.0951. For RRIRCRPPRLPRPRPRPADQPRP, the “shrunken log2 fold change” value was -0.0916. The figure for RRIRNRPPRLPRPRPRPSVGPRP is -0.0175. Take RRIRMRPPRLPRPRPRPHWKPRP: the “shrunken log2 fold change” value was 0.0142. For the sequence RRIRPRPPRLPRPRPRPTEDPRP, the “shrunken log2 fold change” value was -0.18. The figure for RRIRDRPPRLPRPRPRPRIVPRP is -0.385; for RRIRIRPPRLPRPRPRPYAYPRP it is -0.0284; for RRIRWRPPRLPRPRPRPEHEPRP it is 0.623. For the sequence RRIRRRPPRLPRPRPRPFMPPRP, the “shrunken log2 fold change” value is -0.00307. In the case of RRIRNRPPRLPRPRPRPMYNPRP it was -0.693.

Turning to RRIRNRPPRLPRPRPRPKVKPRP, the “shrunken log2 fold change” value is -0.196.

As for RRIRWRPPRLPRPRPRPTGCPRP, the “shrunken log2 fold change” value stood at 0.141.

For RRIRFRPPRLPRPRPRPYRIPRP, the “shrunken log2 fold change” value is -0.34. With RRIRTRPPRLPRPRPRPVPDPRP, the “shrunken log2 fold change” value was -0.0687. With RRIRRRPPRLPRPRPRPRGQPRP, the “shrunken log2 fold change” value worked out at 1.11. As for RRIRYRPPRLPRPRPRPTSLPRP, the “shrunken log2 fold change” value is -0.0466. Regarding RRIRVRPPRLPRPRPRPQMPPRP, the “shrunken log2 fold change” value was 0.204. RRIRARPPRLPRPRPRPKFRPRP: the “shrunken log2 fold change” value was -0.043. Take RRIRWRPPRLPRPRPRPCYDPRP: the “shrunken log2 fold change” value is -0.00133.

With RRIRLRPPRLPRPRPRPKYPPRP, the “shrunken log2 fold change” value came to 0.0464. As for RRIRKRPPRLPRPRPRPASAPRP, the “shrunken log2 fold change” value is 0.59. On to RRIRARPPRLPRPRPRPCMLPRP, for which the “shrunken log2 fold change” value was -0.0396.

Take RRIRERPPRLPRPRPRPCPWPRP: the “shrunken log2 fold change” value is -0.278. Take RRIRVRPPRLPRPRPRPDNSPRP: the “shrunken log2 fold change” value is -0.202. For the sequence RRIRGRPPRLPRPRPRPWCDPRP, the “shrunken log2 fold change” value is 0.0715. For RRIRSRPPRLPRPRPRPLRGPRP, the “shrunken log2 fold change” value was found to be 0.897.

In the case of RRIRRRPPRLPRPRPRPEKLPRP, the “shrunken log2 fold change” value came out at 0.128.

Consider RRIRTRPPRLPRPRPRPNEFPRP, for which the “shrunken log2 fold change” value came to 0.0177. RRIRIRPPRLPRPRPRPLPKPRP: the “shrunken log2 fold change” value worked out at 0.263.

With RRIRHRPPRLPRPRPRPSAEPRP, the “shrunken log2 fold change” value is 0.217.

For the sequence RRIRSRPPRLPRPRPRPSMKPRP, the “shrunken log2 fold change” value is -0.59. The figure for RRIRDRPPRLPRPRPRPCCTPRP is 0.149; for RRIRMRPPRLPRPRPRPRCRPRP it is 0.619; for RRIRYRPPRLPRPRPRPHDIPRP it is -0.00174. Take RRIRCRPPRLPRPRPRPTVAPRP: the “shrunken log2 fold change” value came out at 0.0998. For the sequence RRIRPRPPRLPRPRPRPDWLPRP, the “shrunken log2 fold change” value came out at 0.288. Take RRIRNRPPRLPRPRPRPQCHPRP: the “shrunken log2 fold change” value is -0.42. For RRIRVRPPRLPRPRPRPPCSPRP, the “shrunken log2 fold change” value was -0.116. As for RRIRWRPPRLPRPRPRPGGIPRP, the “shrunken log2 fold change” value came out at 0.22. In the case of RRIRHRPPRLPRPRPRPDQLPRP it was -0.51.

On to RRIRYRPPRLPRPRPRPWIPPRP, for which the “shrunken log2 fold change” value is -0.0119. The figure for RRIRHRPPRLPRPRPRPLDPPRP is -0.331; for RRIRTRPPRLPRPRPRPFDDPRP it is 0.0564. In the case of RRIRTRPPRLPRPRPRPYTIPRP, the “shrunken log2 fold change” value was -1.21. Turning to RRIRGRPPRLPRPRPRPKFLPRP, the “shrunken log2 fold change” value was 0.267. RRIRMRPPRLPRPRPRPEHHPRP: the “shrunken log2 fold change” value was 0.323. Regarding RRIRQRPPRLPRPRPRPNYWPRP, the “shrunken log2 fold change” value is -0.251. As to RRIRDRPPRLPRPRPRPHNTPRP, the “shrunken log2 fold change” value is -0.531. Regarding RRIRVRPPRLPRPRPRPDATPRP, the “shrunken log2 fold change” value was found to be 0.299. Take RRIRCRPPRLPRPRPRPFMKPRP: the “shrunken log2 fold change” value is -0.696.

In the case of RRIRERPPRLPRPRPRPFLWPRP, the “shrunken log2 fold change” value turned out to be 0.155. For RRIRRRPPRLPRPRPRPYGVPRP, the “shrunken log2 fold change” value was 0.037.
